{"source": "paper PMC8906176", "assay_in_all_cases": "BLI", "key": {"[1]": {"target": "C12b-AM2 monobody"}, "[2]": {"target": "C12b-AM1 monobody"}, "[3]": {"target": "C6b-AM2 monobody"}, "[4]": {"target": "C4-AM2 monobody"}, "[5]": {"target": "C4-AM1 monobody"}}, "data": [{"substance": "SARS-CoV-2 S protein receptor-binding domain, wild type (B.1.1) (from UniProt P0DTC2) (domain or fragment)", "values": [{"measurement": "Kd", "setting": "[1]", "result": "< 0.01", "unit": "nM"}, {"measurement": "Kd", "setting": "[2]", "result": 1, "unit": "nM"}, {"measurement": "Kd", "setting": "[3]", "result": 0.36, "unit": "nM"}, {"measurement": "Kd", "setting": "[4]", "result": "< 0.01", "unit": "nM"}, {"measurement": "Kd", "setting": "[5]", "result": 0.11, "unit": "nM"}]}]}
